# Test results from the RNAGym collection of RNA variant scans (doi:10.1073/pnas.2313332121).
# Fewer inactive variants are shown than the library holds.
# B1: TPR 5TU (parent)
# chain: GGAUCUUCUCGAUCUAACAAAAAAGACAAAUCUGCCACAAAGCUUGAGAGCAUCUUCGGAUGCAGAGGCGGCAGCCUUCGGUGGCGCGAUAGCGCCAACGUUCUCAACUAUGACACGCAAAACGCGUGCUCCGUUGAAUGGAGUUUAUCAUG
# Variants of: B1
# Assay: polymerase ribozyme fitness, log enrichment relative to wild type (log ratio); higher = more active; in vitro selection for triplet polymerase activity
# Procedure, shortened: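 For each subunit of a heterodimeric triplet polymerase ribozyme, a mutant library was built by PCR and transcribed, then taken through a single in vitro selection round in triplicate. Selection involved annealing to a biotinylated primer, the partner subunit and triplets, incubation frozen at −7 °C, gel excision of extended constructs, capture on streptavidin beads and RT-PCR. Genotypes were retained after Illumina sequencing of inputs and outputs only with ≥10 input reads and ≥1 read in each output. Fitness is defined as the logarithm of a genotype's enrichment relative to wild-type enrichment, using inverse-variance-weighted averages across replicates, with the logarithm taken to base 2.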
row,Variant,polymerase ribozyme fitness (log ratio)
1,C76G G140U U151G,≤ -4.2
2,A21C A110C,≤ -4.2
3,C99U C125U,0.0952
4,A49C G81U G84U C125G G141C A150U,≤ -4.2
5,A39G G141C,-2.65
6,A60C A89C G94A,-1.69
7,A20U A52C C54U G88U A107U C116A,≤ -4.2
8,A12U C85A U139G,-0.992
9,A21U U56A G81U C85G A107U G141U U144G,≤ -4.2
10,U9A A20C A23U U31G A47C G50U G58A C85U A91C,≤ -4.2
11,G92U C95A A115G A147C,≤ -4.2
12,G84A U104C,-0.421
13,C43U G59C U77A U111C,≤ -4.2
14,G34A A37C C43U C125G U130A C149A,≤ -4.2
15,C96G A110G,-3.11
16,U6C C54G C93A C116G G141A,-4.17
17,A49U A60C,-3.47
18,C36A U56G C85U C93U G94C,≤ -4.2
19,A3U C57A,-0.997
20,C93A G117U,-1.92
21,A17U G48C G50U C76A C93A,≤ -4.2
22,A66U,-3.46
23,C93U C95U C131U,-0.998
24,C51U G84A,-0.489

row,Variant,polymerase ribozyme fitness (log ratio)
1,A41C C57A C96U U134C,-0.224
2,C36A C87U G140C,≤ -4.2
3,C43A U44A C118U,-4.17
4,G92A G100C,-4.07
5,A41C G48A,-1.3
6,A91U C114U U148G,≤ -4.2
7,G128U A137U,-3.34
8,U61C C96A A121G,-2.74
9,A21U C27A U44G C87A A137U,≤ -4.2
10,U53A G92U A107U G136U,≤ -4.2
11,U31G C87U U127A,-3.89
12,A37C C38U U145C,0.0837
13,A22C U33G G50C U78A C87A G126A U135A U144G,-3.83
14,C35U G59C G81A G83A A110G G133C,≤ -4.2
15,A16U A39G A89C C95U G152C,≤ -4.2
16,U31G G42U G58U G59A G86U U104G C131G G136C,≤ -4.2
17,A89G U111C,≤ -4.2
18,U90C,-2.87
19,C103G A121G,-1.32
20,A21U G59U C105U C129A,-2.46
21,C14G A40U C43U G46A G50C C85U G112A,≤ -4.2
22,G50A G84A,-2.43
23,U33G G81C G83A C87G C105A A120C A121G G143A U148A,≤ -4.2
24,U56C G67U A91C A97U C123A,≤ -4.2

row,Variant,polymerase ribozyme fitness (log ratio)
1,A52C C103A A147C,≤ -4.2
2,A22G A52U C85U U109G,-3.97
3,A49C U53A G81C A98U G100A C103A,≤ -4.2
4,C14G A22C A39C A52G C75G U82G G140U,≤ -4.2
5,C8G A23U C27G A40G A49C C87U U104G U134G G140A,≤ -4.2
6,C5G C87A,≤ -4.2
7,A3G A12G A29G C38U G42C G86U A138C,≤ -4.2
8,A20G A40U U77C,≤ -4.2
9,A16C G94A,-1.78
10,U15C U53A A98G C105G U146G,≤ -4.2
11,G84A U134C,-0.573
12,A28U C54U C76A C114U,-3.97
13,G83U G100U,-3.9
14,A60C G81A C87A G133C G143A U148A,≤ -4.2
15,G58C C72U U101G,0.371
16,C76A C79U C125U G140U,≤ -4.2
17,A52C C85U U102C,-2.57
18,C14G C18U C57U G65A G83A A106C G117U,≤ -4.2
19,G92U A106G,-0.318
20,U55A U56A,-0.654
21,U53A C76G,≤ -4.2
22,A12U C85A C96A,-2.97
23,C85A C125U,-1.7
24,A52C C96U A119U U130G,≤ -4.2

row,Variant,polymerase ribozyme fitness (log ratio)
1,C54G G94A C108A C125U,≤ -4.2
2,A19U U53G C93G,≤ -4.2
3,U9G C32G G71A,≤ -4.2
4,U6G C10G G50C U55A G58A C72G C95U C96U U144G U148A,≤ -4.2
5,C10G A26U A28C C87A G88U A91C U145C,≤ -4.2
6,C10A C32G U44G C57U U82G G83A,≤ -4.2
7,A37G A41C G71A U90A C96U,≤ -4.2
8,A39G G58U U82C C108A U146A A150C,≤ -4.2
9,A20C U31G U53A U55G A115C,-2.82
10,U90G G94U A106U,≤ -4.2
11,A28G C36U,≤ -4.2
12,G42U U53C C95G,≤ -4.2
13,G84A A120C C125U G136A,0.204
14,A89U,-0.292
15,U9G A16G C18A C63U,≤ -4.2
16,U6G C87G,-3.6
17,U13G A21U C32G A73U U78A C87A C118A,≤ -4.2
18,G11C C14U A37C C93U,≤ -4.2
19,C5G G92A C96A,-3.11
20,C57U A66C,-3.93
21,C54A C57G U90G U139A G140U U146A,≤ -4.2
22,C51A C85U A89G U146A,-3.11
23,A110G G136A,-2.94
24,G50A A52C G81C,-2.82

row,Variant,polymerase ribozyme fitness (log ratio)
1,G92U A137G U145C,-1.11
2,G88C C114U G141U,≤ -4.2
3,G50A C57U G74U C75G C87A A97C A150G,≤ -4.2
4,A24U G59C,0.829
5,C43A C57G U78G C96A A113G,≤ -4.2
6,A21G A24G A47G G94C U102G C118U A121U,≤ -4.2
7,C69G C85U U101G,-1.25
8,U53A A89C G94A G141C,-3.63
9,A3U C10U U61A G65A A66C,≤ -4.2
10,A22U A30U C32A U78G G88A G117U U139G,≤ -4.2
11,G84A C95A,-0.531
12,C54G C103A G140C,≤ -4.2
13,A39U C43U U111G,≤ -4.2
14,A47U A89G C116U G133U A138C,-4.12
15,C79U A91U C125A,≤ -4.2
16,G94C C116U,-0.0318
17,G84A G136A U148C,-1.66
18,C95U C96U G124U G136C,-3.61
19,U61A C129U,-3.55
20,G25U C99U A119C A120G,-3.26
21,C75G G92C C123A,≤ -4.2
22,A17G G62C G81A,-1.76
23,G94U G143U,-3.64
24,C43U C79A,-4.15

row,Variant,polymerase ribozyme fitness (log ratio)
1,A21C G83C C87A G92U C116G,-1.27
2,A3C G48U C69U,-2.88
3,C35U A49G G88U C93G,≤ -4.2
4,U53A C75G U109G U139C,≤ -4.2
5,A24U G86U,-2.59
6,U55G G133U,-4.16
7,A39G U53A C87U A115C,-3.83
8,C14A C38A C93G,≤ -4.2
9,A41U G74A C103U C114U U134C,≤ -4.2
10,A41U C103G A113G C125A,≤ -4.2
11,G83C G126U,0.246
12,C51U C87U,-1.13
13,C85U A142G,-1.38
14,A3G C27U G86A,-3.94
15,G88U C99A,-4.1
16,A12G C38U C99U,-0.24
17,A37C C93U G136C G141U,-3.34
18,A39U A73U,-4.11
19,G68A A122G G133C,≤ -4.2
20,C36A G46C C79U G88U U151A,≤ -4.2
21,C75U G92U G112C A113U C114G,≤ -4.2
22,A12G U151G,-4.06
23,G11U A41U C93U C99A U104G C118U G140U G152U,-4.02
24,A52G C57A G94U G117U A121C C131G,≤ -4.2

row,Variant,polymerase ribozyme fitness (log ratio)
1,U33C C63U C99U A142G,≤ -4.2
2,A37U C87U,-0.99
3,U6C C95U A98U C99U,-2.4
4,A60G A73G G92U,0.661
5,A73G U148C,-2.55
6,U15A G50U C95U C99G C105U A115G A150C,≤ -4.2
7,G59A A73G U90C C93G C131U U144G,≤ -4.2
8,A28G C116U,-3.63
9,A16U A47G C51U C95A C114U,-3.93
10,A41C C63U C76G C93A U127A,≤ -4.2
11,G50A C95U,-2.44
12,C38U G92A U146A,-2.92
13,C75G G94C,-3.53
14,A20U A23U A24U C51U A60G C85G,≤ -4.2
15,G86A C103G U134A,≤ -4.2
16,G86A A89U,-1.96
17,A22C C87U,-0.775
18,C8A G88U G92U C95U A106C U127G,≤ -4.2
19,C93U A113U A119C G140U,-3.82
20,C38U C76G,≤ -4.2
21,C72U U90C C93A U104A U127A,≤ -4.2
22,A73U C76A U77A G94C U104G A106G C108U,≤ -4.2
23,A66C G92C C114U,≤ -4.2
